Results reported in US20260274985A1 (MYTHIC THERAPEUTICS, published 2026).
Read-outs that look alike come from different tables or passages of the source.

What was measured:
[1] = molecular target: T1, Human TROP2 Protein, His Tag (Acro Biosystems) (human, UniProt P09758 27-274); test: BLI (Octet)
T1 construct: Bought protein; also called TACSTD2; not shown: His tag
T1 sequence: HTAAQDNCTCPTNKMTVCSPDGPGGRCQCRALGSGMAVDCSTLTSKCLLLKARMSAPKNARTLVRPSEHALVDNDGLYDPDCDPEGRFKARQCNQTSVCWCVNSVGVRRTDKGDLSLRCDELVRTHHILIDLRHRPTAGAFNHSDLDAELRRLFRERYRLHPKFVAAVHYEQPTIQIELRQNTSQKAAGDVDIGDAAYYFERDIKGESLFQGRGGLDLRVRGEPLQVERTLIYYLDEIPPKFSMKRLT

[2] = molecular target: T2, Human TROP2 Protein, His Tag (Acro Biosystems) (human, UniProt P09758 27-274); test: BLI (Octet)
T2 construct: Bought protein; not shown: His tag
T2 sequence (looked up): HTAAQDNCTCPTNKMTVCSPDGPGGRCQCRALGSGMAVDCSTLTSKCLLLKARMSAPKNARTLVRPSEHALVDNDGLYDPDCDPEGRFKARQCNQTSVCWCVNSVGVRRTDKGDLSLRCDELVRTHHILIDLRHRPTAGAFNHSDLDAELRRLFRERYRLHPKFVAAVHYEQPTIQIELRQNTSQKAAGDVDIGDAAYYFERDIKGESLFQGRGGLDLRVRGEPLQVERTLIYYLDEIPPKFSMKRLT
Protocol: After allowing for four days of protein expression, cell culture supernatants were collected, quantified by SDS-PAGE analysis (DNS), and the pH dependence of the variant was evaluated using biolayer interferometry (BLI) on an Octet RED 96e instrument. Briefly, cell culture supernatants were diluted based on qualitative expression level of the variant determined by visual examination of SDS-PAGE gels, 5 μL of cell culture supernatant was diluted into 195 μL of 1×PBST, pH 7.4 for high expressors, 25 μL of cell culture supernatant was diluted into 175 μL of 1×PBST, pH 7.4 for medium expressors and 100 μL of cell culture supernatant was diluted into 100 μL of 1×PBST, pH 7.4 for low expressors for loading onto the sensor tips. The resulting diluted supernatants were then captured on an anti-human Fc sensor (Forte Bio). A baseline was established using 1×PBST (50 mM Potassium Phosphate Buffer+150 mM NaCl+0.05% Tween 20) pH 7.4, and the sensor was associated with 50 nM of TROP2 (Human TROP2 Protein, His Tag, Acro Biosystems) in 1×PBST pH 7.4 for 120 sec to generate an association curve. In the dissociation phase, the antibody-antigen complex on the sensor was exposed to 1×PBST pH 7.4 or pH 5.4, for 300 sec. Association and dissociation phase curves were examined for the starting ABPC antibody (with no substitutions) and each corresponding antibody variant at pH 5.4 and pH 7.4 to inform on two criteria: a) enhanced dissociation (i.e., higher koff values) at pH 5.4 due to histidine or alanine substitution compared to the starting ABPC, (with no substitutions), and b) reduced dissociation at pH 7.4 (i.e., lower koff values) compared to pH 5.4 in the antibody variant itself and with the starting ABPC (with no substitutions). […] It was also noted that while some mutations obliterated TROP2 binding, others were tolerated with little or n change in TROP2 binding kinetics.

B1: MYT12410 (hu7E6SVG variant, HCV substitutions at 33, 56) (antibody, V domains shown)
VH: QVQLQESGPGLVKPSETLSLTCTVSGGSISSYHVHWIRQPPGKGLEWIGVIWTSGHTDYNSALMGRVTISVDTSKNQFSLKLSSVTAADTAVYYCARDGDYDRYTMDYWGQGTLVTVSS
VL: DIVMTQSPDSLAVSLGERATINCRASKSVSTSGYSYMHWYQQKPGQPPKLLIYLASNLESGVPDRFSGSGSGTDFTLTISSLQAEDVAVYYCQHSRELPYTFGQGTKLEIK
binding result [1]: binds

B2: MYT12415 (hu7E6SVG variant, HCV substitutions at 34, 56) (antibody, V domains shown)
VH: QVQLQESGPGLVKPSETLSLTCTVSGGSISSYGHHWIRQPPGKGLEWIGVIWTSGHTDYNSALMGRVTISVDTSKNQFSLKLSSVTAADTAVYYCARDGDYDRYTMDYWGQGTLVTVSS
VL: DIVMTQSPDSLAVSLGERATINCRASKSVSTSGYSYMHWYQQKPGQPPKLLIYLASNLESGVPDRFSGSGSGTDFTLTISSLQAEDVAVYYCQHSRELPYTFGQGTKLEIK
binding result [1]: binds

B3: MYT12418 (hu7E6SVG variant, HCV substitutions at 34, 106) (antibody, V domains shown)
VH: QVQLQESGPGLVKPSETLSLTCTVSGGSISSYGHHWIRQPPGKGLEWIGVIWTSGVTDYNSALMGRVTISVDTSKNQFSLKLSSVTAADTAVYYCARDGDYDRYTHDYWGQGTLVTVSS
VL: DIVMTQSPDSLAVSLGERATINCRASKSVSTSGYSYMHWYQQKPGQPPKLLIYLASNLESGVPDRFSGSGSGTDFTLTISSLQAEDVAVYYCQHSRELPYTFGQGTKLEIK
binding result [1]: binds

B4: MYT12419 (hu7E6SVG variant, HCV substitutions at 51, 56) (antibody, V domains shown)
VH: QVQLQESGPGLVKPSETLSLTCTVSGGSISSYGVHWIRQPPGKGLEWIGVHWTSGHTDYNSALMGRVTISVDTSKNQFSLKLSSVTAADTAVYYCARDGDYDRYTMDYWGQGTLVTVSS
VL: DIVMTQSPDSLAVSLGERATINCRASKSVSTSGYSYMHWYQQKPGQPPKLLIYLASNLESGVPDRFSGSGSGTDFTLTISSLQAEDVAVYYCQHSRELPYTFGQGTKLEIK
binding result [1]: binds

B5: MYT12411 (hu7E6SVG variant, HCV substitutions at 33, 102) (antibody, V domains shown)
VH: QVQLQESGPGLVKPSETLSLTCTVSGGSISSYHVHWIRQPPGKGLEWIGVIWTSGVTDYNSALMGRVTISVDTSKNQFSLKLSSVTAADTAVYYCARDGDYHRYTMDYWGQGTLVTVSS
VL: DIVMTQSPDSLAVSLGERATINCRASKSVSTSGYSYMHWYQQKPGQPPKLLIYLASNLESGVPDRFSGSGSGTDFTLTISSLQAEDVAVYYCQHSRELPYTFGQGTKLEIK
binding result [1]: binds

B6: MYT12414 (hu7E6SVG variant, HCV substitutions at 34, 51) (antibody, V domains shown)
VH: QVQLQESGPGLVKPSETLSLTCTVSGGSISSYGHHWIRQPPGKGLEWIGVHWTSGVTDYNSALMGRVTISVDTSKNQFSLKLSSVTAADTAVYYCARDGDYDRYTMDYWGQGTLVTVSS
VL: DIVMTQSPDSLAVSLGERATINCRASKSVSTSGYSYMHWYQQKPGQPPKLLIYLASNLESGVPDRFSGSGSGTDFTLTISSLQAEDVAVYYCQHSRELPYTFGQGTKLEIK
binding result [1]: binds

B7: MYT11605 (antibody, V domains shown)
VH: QVQLQQSGSELKKPGASVKVSCKASGYTFTNYGMNWVKQAPGQGLKWMGWINTYTGEPTYTDDFKGRFAFSLDTSVSTAYLQISSLKADDTAVYFCARGGFGSSYWYHDVWGQGSLVTVSS
VL: DIQLTQSPSSLSASVGDRVSITCKASQDVSIAVAWYQQKPGKAPKLLIYSASYRYTGVPDRFSGSGSGTDFTLTISSLQPEDFAVYYCQQHYITPLTFGAGTKVEIK
binding result [2]: binds

B8: MYT11612 (antibody, V domains shown)
VH: QVQLQQSGSELKKPGASVKVSCKASGYTFTNYGMNWVKQAPGQGLKWMGWINTYTGEPTYTDDFKGRFAFSLDTSVSTAYLQISSLKADDTAVYFCARGGFGSSYWYFDVWGQGSLVTVSS
VL: DIQLTQSPSSLSASVGDRVSITCKASQHVSIAVAWYQQKPGKAPKLLIYSASYRYTGVPDRFSGSGSGTDFTLTISSLQPEDFAVYYCQQHYITPLTFGAGTKVEIK
notes: Sacituzumab variant, His at LCV position 28 (L1 05)
binding result [2]: binds

B9: MYT11617 (antibody, V domains shown)
VH: QVQLQQSGSELKKPGASVKVSCKASGYTFTNYGMNWVKQAPGQGLKWMGWINTYTGEPTYTDDFKGRFAFSLDTSVSTAYLQISSLKADDTAVYFCARGGFGSSYWYFDVWGQGSLVTVSS
VL: DIQLTQSPSSLSASVGDRVSITCKASQDVSIAHAWYQQKPGKAPKLLIYSASYRYTGVPDRFSGSGSGTDFTLTISSLQPEDFAVYYCQQHYITPLTFGAGTKVEIK
notes: Sacituzumab variant, His at LCV position 33 (L1 10)
binding result [2]: binds

B10: MYT11613 (antibody, V domains shown)
VH: QVQLQQSGSELKKPGASVKVSCKASGYTFTNYGMNWVKQAPGQGLKWMGWINTYTGEPTYTDDFKGRFAFSLDTSVSTAYLQISSLKADDTAVYFCARGGFGSSYWYFDVWGQGSLVTVSS
VL: DIQLTQSPSSLSASVGDRVSITCKASQDHSIAVAWYQQKPGKAPKLLIYSASYRYTGVPDRFSGSGSGTDFTLTISSLQPEDFAVYYCQQHYITPLTFGAGTKVEIK
notes: Sacituzumab variant, His at LCV position 29 (L1 06)
binding result [2]: binds

B11: MYT11608 (antibody, V domains shown)
VH: QVQLQQSGSELKKPGASVKVSCKASGYTFTNYGMNWVKQAPGQGLKWMGWINTYTGEPTYTDDFKGRFAFSLDTSVSTAYLQISSLKADDTAVYFCARGGFGSSYWYFDVWGQGSLVTVSS
VL: DIQLTQSPSSLSASVGDRVSITCHASQDVSIAVAWYQQKPGKAPKLLIYSASYRYTGVPDRFSGSGSGTDFTLTISSLQPEDFAVYYCQQHYITPLTFGAGTKVEIK
notes: Sacituzumab variant, His at LCV position 24 (L1 01)
binding result [2]: binds

B12: MYT11609 (antibody, V domains shown)
VH: QVQLQQSGSELKKPGASVKVSCKASGYTFTNYGMNWVKQAPGQGLKWMGWINTYTGEPTYTDDFKGRFAFSLDTSVSTAYLQISSLKADDTAVYFCARGGFGSSYWYFDVWGQGSLVTVSS
VL: DIQLTQSPSSLSASVGDRVSITCKHSQDVSIAVAWYQQKPGKAPKLLIYSASYRYTGVPDRFSGSGSGTDFTLTISSLQPEDFAVYYCQQHYITPLTFGAGTKVEIK
notes: Sacituzumab variant, His at LCV position 25 (L1 02)
binding result [2]: binds

B13: MYT11620 (antibody, V domains shown)
VH: QVQLQQSGSELKKPGASVKVSCKASGYTFTNYGMNWVKQAPGQGLKWMGWINTYTGEPTYTDDFKGRFAFSLDTSVSTAYLQISSLKADDTAVYFCARGGFGSSYWYFDVWGQGSLVTVSS
VL: DIQLTQSPSSLSASVGDRVSITCKASQDVSIAVAWYQQKPGKAPKLLIYSHSYRYTGVPDRFSGSGSGTDFTLTISSLQPEDFAVYYCQQHYITPLTFGAGTKVEIK
notes: Sacituzumab variant, His at LCV position 51 (L2 02)
binding result [2]: binds

B14: MYT11607 (antibody, V domains shown)
VH: QVQLQQSGSELKKPGASVKVSCKASGYTFTNYGMNWVKQAPGQGLKWMGWINTYTGEPTYTDDFKGRFAFSLDTSVSTAYLQISSLKADDTAVYFCARGGFGSSYWYFDHWGQGSLVTVSS
VL: DIQLTQSPSSLSASVGDRVSITCKASQDVSIAVAWYQQKPGKAPKLLIYSASYRYTGVPDRFSGSGSGTDFTLTISSLQPEDFAVYYCQQHYITPLTFGAGTKVEIK
notes: Sacituzumab variant, His at HCV position 110 (H3 14)
binding result [2]: binds

B15: MYT11611 (antibody, V domains shown)
VH: QVQLQQSGSELKKPGASVKVSCKASGYTFTNYGMNWVKQAPGQGLKWMGWINTYTGEPTYTDDFKGRFAFSLDTSVSTAYLQISSLKADDTAVYFCARGGFGSSYWYFDVWGQGSLVTVSS
VL: DIQLTQSPSSLSASVGDRVSITCKASHDVSIAVAWYQQKPGKAPKLLIYSASYRYTGVPDRFSGSGSGTDFTLTISSLQPEDFAVYYCQQHYITPLTFGAGTKVEIK
notes: Sacituzumab variant, His at LCV position 27 (L1 04)
binding result [2]: binds

B16: MYT11621 (antibody, V domains shown)
VH: QVQLQQSGSELKKPGASVKVSCKASGYTFTNYGMNWVKQAPGQGLKWMGWINTYTGEPTYTDDFKGRFAFSLDTSVSTAYLQISSLKADDTAVYFCARGGFGSSYWYFDVWGQGSLVTVSS
VL: DIQLTQSPSSLSASVGDRVSITCKASQDVSIAVAWYQQKPGKAPKLLIYSAHYRYTGVPDRFSGSGSGTDFTLTISSLQPEDFAVYYCQQHYITPLTFGAGTKVEIK
notes: Sacituzumab variant, His at LCV position 52 (L2 03)
binding result [2]: binds

B17: MYT11610 (antibody, V domains shown)
VH: QVQLQQSGSELKKPGASVKVSCKASGYTFTNYGMNWVKQAPGQGLKWMGWINTYTGEPTYTDDFKGRFAFSLDTSVSTAYLQISSLKADDTAVYFCARGGFGSSYWYFDVWGQGSLVTVSS
VL: DIQLTQSPSSLSASVGDRVSITCKAHQDVSIAVAWYQQKPGKAPKLLIYSASYRYTGVPDRFSGSGSGTDFTLTISSLQPEDFAVYYCQQHYITPLTFGAGTKVEIK
notes: Sacituzumab variant, His at LCV position 26 (L1 03)
binding result [2]: binds

B18: MYT11615 (antibody, V domains shown)
VH: QVQLQQSGSELKKPGASVKVSCKASGYTFTNYGMNWVKQAPGQGLKWMGWINTYTGEPTYTDDFKGRFAFSLDTSVSTAYLQISSLKADDTAVYFCARGGFGSSYWYFDVWGQGSLVTVSS
VL: DIQLTQSPSSLSASVGDRVSITCKASQDVSHAVAWYQQKPGKAPKLLIYSASYRYTGVPDRFSGSGSGTDFTLTISSLQPEDFAVYYCQQHYITPLTFGAGTKVEIK
notes: Sacituzumab variant, His at LCV position 31 (L1 08)
binding result [2]: binds
